# Results: the supplement of paper PMC9112550, “Optimization of the antimicrobial peptide Bac7 by deep mutational scanning” (BMC Biology, 2022)
# System: Escherichia coli TOP10
# Assay: shrunken log2 fold change of peptide-encoding DNA abundance (4.5 h post-induction vs induction); higher = less antimicrobial activity (less host growth inhibition)
# Conditions: time post-induction: 4.5 h; library: site-saturation at positions 5, 18, 19, 20
# 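Further: peptides expressed intracellularly from a pBAD plasmid library in pooled LB shake-flask culture, induced with 0.3% L-arabinose, DNA abundance read by NGS, three biological replicates, DESeq2 with apeglm shrinkage.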
row,Sequence,shrunken log2 fold change
1,RRIRHRPPRLPRPRPRPILEPRP,0.077
2,RRIRLRPPRLPRPRPRPFVPPRP,-0.162
3,RRIRMRPPRLPRPRPRPCVMPRP,0.0536
4,RRIRERPPRLPRPRPRPDPSPRP,0.0648
5,RRIRKRPPRLPRPRPRPGAKPRP,1.16
6,RRIRFRPPRLPRPRPRPDHIPRP,-0.00578
7,RRIRWRPPRLPRPRPRPQEHPRP,0.0218
8,RRIRKRPPRLPRPRPRPRVRPRP,0.755
9,RRIRSRPPRLPRPRPRPLNAPRP,0.213
10,RRIRARPPRLPRPRPRPNSPPRP,-0.138
11,RRIRWRPPRLPRPRPRPAHPPRP,0.304
12,RRIRARPPRLPRPRPRPHFIPRP,0.179
13,RRIRTRPPRLPRPRPRPKPAPRP,0.0421
14,RRIRQRPPRLPRPRPRPNYYPRP,-0.611
15,RRIRFRPPRLPRPRPRPDAVPRP,-0.0144
16,RRIRDRPPRLPRPRPRPDADPRP,0.0193
17,RRIRPRPPRLPRPRPRPHAFPRP,0.0176
18,RRIRGRPPRLPRPRPRPMWIPRP,0.218
19,RRIRPRPPRLPRPRPRPYGIPRP,-0.533
20,RRIRLRPPRLPRPRPRPMELPRP,-0.00973
21,RRIRNRPPRLPRPRPRPYSRPRP,-0.00947
22,RRIRKRPPRLPRPRPRPMAQPRP,-0.0932
23,RRIRNRPPRLPRPRPRPIMAPRP,-0.187
24,RRIRKRPPRLPRPRPRPNLLPRP,-0.263
25,RRIRWRPPRLPRPRPRPQCQPRP,0.129

row,Sequence,shrunken log2 fold change
1,RRIRWRPPRLPRPRPRPIEDPRP,-0.00101
2,RRIRGRPPRLPRPRPRPLMIPRP,0.139
3,RRIRNRPPRLPRPRPRPIGLPRP,-0.123
4,RRIRCRPPRLPRPRPRPGPHPRP,0.0758
5,RRIRTRPPRLPRPRPRPIDKPRP,-0.175
6,RRIRMRPPRLPRPRPRPEKKPRP,0.104
7,RRIRVRPPRLPRPRPRPNMPPRP,-0.0801
8,RRIRIRPPRLPRPRPRPIAHPRP,-0.358
9,RRIRERPPRLPRPRPRPWLNPRP,-0.00136
10,RRIRTRPPRLPRPRPRPPTEPRP,0.498
11,RRIRQRPPRLPRPRPRPVRQPRP,0.0135
12,RRIRRRPPRLPRPRPRPWMKPRP,-0.196
13,RRIRFRPPRLPRPRPRPCDKPRP,-0.0972
14,RRIRERPPRLPRPRPRPIIGPRP,-0.249
15,RRIRQRPPRLPRPRPRPDRGPRP,0.0176
16,RRIRMRPPRLPRPRPRPLEHPRP,0.0245
17,RRIRMRPPRLPRPRPRPYLIPRP,-0.463
18,RRIRIRPPRLPRPRPRPFGFPRP,-0.694
19,RRIRERPPRLPRPRPRPRNPPRP,-0.0856
20,RRIRFRPPRLPRPRPRPDQFPRP,-0.221
21,RRIRHRPPRLPRPRPRPCTYPRP,-0.634
22,RRIRVRPPRLPRPRPRPTQQPRP,0.346
23,RRIRMRPPRLPRPRPRPLFHPRP,-0.0668
24,RRIRTRPPRLPRPRPRPVNLPRP,-0.0397
25,RRIRPRPPRLPRPRPRPSCFPRP,-0.193

row,Sequence,shrunken log2 fold change
1,RRIRPRPPRLPRPRPRPLLKPRP,0.593
2,RRIRKRPPRLPRPRPRPKHIPRP,-0.0252
3,RRIRCRPPRLPRPRPRPLCAPRP,0.12
4,RRIRARPPRLPRPRPRPPELPRP,0.947
5,RRIRVRPPRLPRPRPRPHACPRP,0.0734
6,RRIRGRPPRLPRPRPRPWTHPRP,-0.0708
7,RRIRDRPPRLPRPRPRPEPRPRP,1
8,RRIRRRPPRLPRPRPRPTCRPRP,0.41
9,RRIRKRPPRLPRPRPRPWKRPRP,0.024
10,RRIRARPPRLPRPRPRPRMFPRP,0.345
11,RRIRERPPRLPRPRPRPRSRPRP,-0.195
12,RRIRVRPPRLPRPRPRPIPLPRP,-0.107
13,RRIRRRPPRLPRPRPRPLQDPRP,0.0495
14,RRIRDRPPRLPRPRPRPYINPRP,-0.108
15,RRIRIRPPRLPRPRPRPHTMPRP,-0.776
16,RRIRDRPPRLPRPRPRPNADPRP,0.018
17,RRIRNRPPRLPRPRPRPYELPRP,-0.0122
18,RRIRTRPPRLPRPRPRPSSWPRP,0.131
19,RRIRARPPRLPRPRPRPQYTPRP,-0.496
20,RRIRQRPPRLPRPRPRPAQCPRP,-0.017
21,RRIRPRPPRLPRPRPRPGGIPRP,0.114
22,RRIRTRPPRLPRPRPRPLWTPRP,-0.0962
23,RRIRKRPPRLPRPRPRPIAEPRP,0.0504
24,RRIRYRPPRLPRPRPRPCQNPRP,0.0275
25,RRIRKRPPRLPRPRPRPKYDPRP,0.38

row,Sequence,shrunken log2 fold change
1,RRIRVRPPRLPRPRPRPNESPRP,-0.374
2,RRIRRRPPRLPRPRPRPRGTPRP,0.216
3,RRIRARPPRLPRPRPRPIQLPRP,-0.0651
4,RRIRSRPPRLPRPRPRPEYQPRP,0.0227
5,RRIRKRPPRLPRPRPRPMIHPRP,-0.00347
6,RRIRTRPPRLPRPRPRPLKIPRP,0.0669
7,RRIRIRPPRLPRPRPRPKDWPRP,0.299
8,RRIRCRPPRLPRPRPRPHCAPRP,-0.254
9,RRIRIRPPRLPRPRPRPVQGPRP,0.552
10,RRIRYRPPRLPRPRPRPWCPPRP,-0.28
11,RRIRQRPPRLPRPRPRPFKYPRP,-0.0224
12,RRIRDRPPRLPRPRPRPDNWPRP,-0.232
13,RRIRDRPPRLPRPRPRPTQYPRP,-0.191
14,RRIRVRPPRLPRPRPRPKDCPRP,-0.107
15,RRIRYRPPRLPRPRPRPREEPRP,0.0202
16,RRIRNRPPRLPRPRPRPDNDPRP,-0.579
17,RRIRSRPPRLPRPRPRPDKAPRP,-0.111
18,RRIRQRPPRLPRPRPRPEQQPRP,-0.0316
19,RRIRNRPPRLPRPRPRPPFRPRP,0.153
20,RRIRPRPPRLPRPRPRPKAPPRP,0.171
21,RRIRHRPPRLPRPRPRPYWVPRP,-0.26
22,RRIRSRPPRLPRPRPRPQYVPRP,-0.22
23,RRIRERPPRLPRPRPRPSNRPRP,-0.209
24,RRIRIRPPRLPRPRPRPWHNPRP,-0.169
25,RRIRNRPPRLPRPRPRPMKHPRP,-0.705

row,Sequence,shrunken log2 fold change
1,RRIRPRPPRLPRPRPRPCNMPRP,0.0288
2,RRIRPRPPRLPRPRPRPSGCPRP,0.142
3,RRIRSRPPRLPRPRPRPKAMPRP,-0.148
4,RRIRARPPRLPRPRPRPAMYPRP,0.0624
5,RRIRIRPPRLPRPRPRPYYVPRP,-0.481
6,RRIRNRPPRLPRPRPRPMPKPRP,-0.0238
7,RRIRIRPPRLPRPRPRPWREPRP,0.158
8,RRIRLRPPRLPRPRPRPDLWPRP,0.774
9,RRIRVRPPRLPRPRPRPSTYPRP,-0.288
10,RRIRARPPRLPRPRPRPRKVPRP,0.615
11,RRIRARPPRLPRPRPRPNYMPRP,-0.2
12,RRIRKRPPRLPRPRPRPQSVPRP,0.139
13,RRIRERPPRLPRPRPRPCPHPRP,-0.105
14,RRIRHRPPRLPRPRPRPPWCPRP,0.0341
15,RRIRSRPPRLPRPRPRPETQPRP,0.29
16,RRIRGRPPRLPRPRPRPFPDPRP,0.0778
17,RRIRSRPPRLPRPRPRPAVVPRP,-0.0261
18,RRIRCRPPRLPRPRPRPGEVPRP,0.212
19,RRIRARPPRLPRPRPRPLGDPRP,0.281
20,RRIRARPPRLPRPRPRPDYHPRP,-0.879
21,RRIRQRPPRLPRPRPRPEHAPRP,0.0519
22,RRIRVRPPRLPRPRPRPVYIPRP,-0.363
23,RRIRRRPPRLPRPRPRPHTDPRP,-0.215
24,RRIRGRPPRLPRPRPRPITQPRP,-0.0614
25,RRIRERPPRLPRPRPRPCEVPRP,0.028

row,Sequence,shrunken log2 fold change
1,RRIRRRPPRLPRPRPRPPPVPRP,0.931
2,RRIRERPPRLPRPRPRPPNWPRP,0.368
3,RRIRVRPPRLPRPRPRPKSQPRP,0.309
4,RRIRIRPPRLPRPRPRPECGPRP,-0.118
5,RRIRYRPPRLPRPRPRPLRGPRP,0.561
6,RRIRWRPPRLPRPRPRPLLYPRP,0.0998
7,RRIRIRPPRLPRPRPRPLQDPRP,-0.31
8,RRIRGRPPRLPRPRPRPGVGPRP,1.11
9,RRIRNRPPRLPRPRPRPPWQPRP,0.161
10,RRIRGRPPRLPRPRPRPNFPPRP,0.193
11,RRIRYRPPRLPRPRPRPMYYPRP,-0.269
12,RRIRGRPPRLPRPRPRPNIYPRP,-0.13
13,RRIRVRPPRLPRPRPRPSMIPRP,-0.375
14,RRIRTRPPRLPRPRPRPKGPPRP,0.0618
15,RRIRIRPPRLPRPRPRPFPFPRP,-1.39
16,RRIRIRPPRLPRPRPRPDQYPRP,-0.0181
17,RRIRRRPPRLPRPRPRPILFPRP,-0.026
18,RRIRERPPRLPRPRPRPIYVPRP,-1.09
19,RRIRYRPPRLPRPRPRPRLQPRP,0.196
20,RRIRERPPRLPRPRPRPSMCPRP,-0.409
21,RRIRWRPPRLPRPRPRPVVSPRP,0.0155
22,RRIRIRPPRLPRPRPRPIQSPRP,-0.0915
23,RRIRKRPPRLPRPRPRPPFAPRP,0.745
24,RRIRSRPPRLPRPRPRPARMPRP,-0.0672
25,RRIRDRPPRLPRPRPRPNGWPRP,0.612
